Series [1] is described as follows: Measurement of NO-scavenging ability (nitrite/dithionite/methyl viologen reaction, remaining nitrite by diazotization method). In kind it is biochemical. To be noted: reaction turnover number from Lineweaver-Burk plot; 2, 4, 6, 8 and 10 mM sodium nitrite; pH 7.0; 37° C. As to the method: To a 10 ml vial, 0.3 ml of 100 mM phosphate buffer (pH 7.0), 0.4 ml of 10 mM sodium nitrite, 0.5 ml of a solution of each of the above-described peptides, and 0.4 ml of 3 mM methyl viologen (Tokyo Kasei Kogyo) were added. Then, the vial was tightly sealed with a butyl rubber stopper and an aluminum seal. This vial was kept at 37° C. for 5 min while feeding argon gas thereinto. Then, 0.3 ml of 100 mM sodium dithionite (dissolved in 50 mM sodium hydrogencarbonate) was added thereto to start the reaction. A 0.2 ml sample was taken from the reaction solution at regular intervals and air-oxidized in a vortex mixer to thereby terminate the reaction.
The amount of the remaining nitrite was determined by the diazotization method. 0.02 ml of the reaction solution was taken, and 1.98 ml of ultrapure water was added thereto. Then, 1 ml of 1% sulfanilamide, 1 ml of 0.02% N-1-naphthyl ethylenediamine chloride and 1 ml of ultrapure water were added thereto. The resultant solution was left at room temperature for 20 min. Then, absorption of the produced azo dye was measured at 540 nm, followed by calculation of the amount of the remaining nitrite from a working curve prepared from a nitrous acid solution of a known concentration.
The measurement of absorption was performed with Shimadzu UV-1600 UV-Visible Spectrophotometer.
Analysis based on reaction kinetics was performed by determining specific activities against 2, 4, 6, 8 and 10 mM sodium nitrite and then calculating the reaction turnover number kcat(s^−1) using a Lineweaver-Burk plot.

A short description of series [2]: Isoelectric point by isoelectric focusing (Ampholine PAGplate gel, pH 3.5-9.5). It is filed as physicochemical. As to the method:
(§1) In the following Examples, reagents manufactured by Wako Purechemical Industries were used unless otherwise noted. Isoelectric point was analyzed by isoelectric focusing using Ampholine PAGplate gel (Pharmacia; for IEF; pH 3.5-9.5). Absorption maximum was determined with Hitachi U-3310 Spectrophotometer (Hitachi). Oxidation-reduction potential was determined with Hitachi U-3310 Spectrophotometer (Hitachi) and ORP electrode (Metrohm).

Series [3] can be described thus: Oxidation-reduction potential (spectrophotometer and ORP electrode). In kind it is physicochemical. As for the experimental part:
as §1

“Horse cardiac muscle cytochrome c: horse cardiac muscle cytochrome c (Wako Purechemical Industries), SEQ ID NO: 1; comparison protein [reference compound]”: the “Rate Constant kcat” value in series [1] was 0.01521 s⁻¹.

As to “mp65: heme peptide, SEQ ID NO: 6, heme bound to Cys 14 and 17; cyanogen bromide cleavage of horse cardiac muscle cytochrome c”, in series [2], the Isoelectric point came to 9.52. For the same molecule, the Oxidation-reduction potential in series [3] is on record as −62.1 mV. The “Rate Constant kcat” value in series [1] came out at 0.12 s⁻¹.

In series [2], “mp15: heme peptide, SEQ ID NO: 3, heme bound to Cys 5 and 8; thermolysin digest of Porphyra yezonesis cytochrome c6 (FSANCAACHAGGNNA; heme bound to Cys5 and Cys8; listed as Porphyra yezoensis)” registered an Isoelectric point of 4.15. Besides, the Oxidation-reduction potential in series [3] was −82.2 mV. For the same molecule, the “Rate Constant kcat” value in series [1] worked out at 2.54 s⁻¹.

In series [2], “mp9: heme peptide, SEQ ID NO: 4, heme bound to Cys 1 and 4; trypsin digest of horse cardiac muscle cytochrome c (CAQCHTVEK; heme bound to Cys1 and Cys4; listed as Equus caballus)” gave an Isoelectric point of 4.95. Besides, in series [3], the Oxidation-reduction potential is given as −132 mV. In addition, in series [1], the “Rate Constant kcat” value is 1.66 s⁻¹.

“mp22: heme peptide, SEQ ID NO: 5, heme bound to Cys 4 and 7; chymotrypsin digest of horse cardiac muscle cytochrome c (VQKCAQCHTVEKGGKHKTGPNL; heme bound to Cys4 and Cys7; listed as Equus caballus)” displayed an Isoelectric point in series [2] of 6.02. In series [3], this molecule yielded an Oxidation-reduction potential of −66.5 mV. Moreover, in series [1], the “Rate Constant kcat” value came out at 0.80 s⁻¹.

B1: Red alga Porphyra yezonesis cytochrome c6: cytochrome c6 purified from red alga Porphyra yezonesis, SEQ ID NO: 2; comparison protein (protein, listed as Porphyra yezoensis)
chain: ADLDNGEKVFSANCAACHAGGNNAIMPDKTLKKDVLEANSMNTIDAITYQVQNGKNAMPAFGGRLVDEDIEDAANYVLSQSEKGW
Regarding B1, the “Rate Constant kcat” value in series [1] was found to be 0.05 s⁻¹.
